Read-outs that look alike come from different tables or passages of the source. *1 amine or outer side, *2 acyl side, *3 side chain or, on linkers, in order; H or OH if unused. Where no end group is shown, it is not given here. Side-chain parts run from the residue outwards. [ ]: non-standard residue; d: D form. The star is where a group is joined. Isobutyryl(2-imidazol-4-yl) = CC(C)(C(=O)*)c1c[nH]cn1; PEG40kDa = 40 kDa polyethylene glycol attached; γGlu = O=C(O)[C@H](CCC(=O)[*:2])N[*:1]; Palmitoyl = CCCCCCCCCCCCCCCC(=O)*; Lauroyl = CCCCCCCCCCCC(=O)*; Aib = CC(C)(N)C(=O)O
T1: GIP receptor (UniProt P48546 22-466, limits assumed)
T1 sequence (looked up): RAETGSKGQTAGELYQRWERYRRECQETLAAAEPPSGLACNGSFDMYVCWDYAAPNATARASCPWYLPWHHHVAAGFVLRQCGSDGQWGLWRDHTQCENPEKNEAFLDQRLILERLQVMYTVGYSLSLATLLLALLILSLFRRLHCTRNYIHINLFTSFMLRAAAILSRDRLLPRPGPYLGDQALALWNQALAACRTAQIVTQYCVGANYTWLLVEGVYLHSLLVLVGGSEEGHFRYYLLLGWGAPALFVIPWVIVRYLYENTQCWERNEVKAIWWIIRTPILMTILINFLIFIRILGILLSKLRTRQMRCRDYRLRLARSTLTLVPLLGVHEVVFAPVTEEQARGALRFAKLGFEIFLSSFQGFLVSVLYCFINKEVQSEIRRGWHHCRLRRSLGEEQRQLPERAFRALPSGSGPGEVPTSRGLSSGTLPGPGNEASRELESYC


Assays:
Experiment in all cases: cell-based or functional assay
[1] = biological target: T2, glucagon receptor (UniProt P47871 26-477, limits assumed)
T2 sequence (P47871 26-477 limits assumed): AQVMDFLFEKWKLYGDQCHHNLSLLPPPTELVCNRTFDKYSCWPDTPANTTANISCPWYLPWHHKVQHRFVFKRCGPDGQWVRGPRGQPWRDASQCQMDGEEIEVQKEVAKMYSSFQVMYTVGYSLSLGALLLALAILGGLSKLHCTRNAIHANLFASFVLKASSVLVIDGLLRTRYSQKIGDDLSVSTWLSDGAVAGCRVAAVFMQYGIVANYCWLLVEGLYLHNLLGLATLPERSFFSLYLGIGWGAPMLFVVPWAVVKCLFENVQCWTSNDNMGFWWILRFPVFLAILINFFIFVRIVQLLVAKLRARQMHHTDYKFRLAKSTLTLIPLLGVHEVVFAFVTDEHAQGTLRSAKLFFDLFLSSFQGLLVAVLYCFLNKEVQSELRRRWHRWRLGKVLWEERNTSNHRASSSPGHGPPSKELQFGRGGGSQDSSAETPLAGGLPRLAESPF

[2] = biological target: T1, GIP receptor
[3] = biological target: T3, GLP-1 receptor (UniProt P43220 24-463, limits assumed)
[4] = biological target: T2, glucagon receptor; remark: listed apart in the source
[5] = biological target: T1, GIP receptor; remark: listed apart in the source
[6] = biological target: T3, GLP-1 receptor; remark: listed apart in the source
[7] = biological target: T2, glucagon receptor; remark: listed apart in the source
[8] = biological target: T1, GIP receptor; remark: listed apart in the source
[9] = biological target: T3, GLP-1 receptor; remark: listed apart in the source

Row | Binder | EC50 (cAMP reporter) [1] [pM] | EC50 (cAMP reporter) [2] [pM] | EC50 (cAMP reporter) [3] [pM] | EC50 (cAMP reporter) [4] [pM] | EC50 (cAMP reporter) [5] [pM] | EC50 (cAMP reporter) [6] [pM] | further results
1 | H[Aib]EGTFTSDK([γGlu-Palmitoyl])SKYLDERAAQDFVQWLLDGGPSSGAPPPS-NH2 (N-terminus assumed; SMILES CCCCCCCCCCCCCCCC(=O)N[C@@H](CCC(=O)NCCCC[C@H](NC(=O)[C@H](CC(=O)O)NC(=O)[C@H](CO)NC(=O)[C@@H](NC(=O)[C@H](Cc1ccccc1)NC(=O)[C@@H](NC(=O)CNC(=O)[C@H](CCC(=O)O)NC(=O)C(C)(C)NC(=O)[C@@H](N)Cc1c[nH]cn1)[C@@H](C)O)[C@@H](C)O)C(=O)N[C@@H](CO)C(=O)N[C@@H](CCCCN)C(=O)N[C@@H](Cc1ccc(O)cc1)C(=O)N[C@@H](CC(C)C)C(=O)N[C@@H](CC(=O)O)C(=O)N[C@@H](CCC(=O)O)C(=O)N[C@@H](CCCNC(=N)N)C(=O)N[C@@H](C)C(=O)N[C@@H](C)C(=O)N[C@@H](CCC(N)=O)C(=O)N[C@@H](CC(=O)O)C(=O)N[C@@H](Cc1ccccc1)C(=O)N[C@H](C(=O)N[C@@H](CCC(N)=O)C(=O)N[C@@H](Cc1c[nH]c2ccccc12)C(=O)N[C@@H](CC(C)C)C(=O)N[C@@H](CC(C)C)C(=O)N[C@@H](CC(=O)O)C(=O)NCC(=O)NCC(=O)N1CCC[C@H]1C(=O)N[C@@H](CO)C(=O)N[C@@H](CO)C(=O)NCC(=O)N[C@@H](C)C(=O)N1CCC[C@H]1C(=O)N1CCC[C@H]1C(=O)N1CCC[C@H]1C(=O)N[C@@H](CO)C(N)=O)C(C)C)C(=O)O) [peptide of SEQ ID NO: 80] | 1280 | 26 | 8 |  |  |  | 
2 | Y[Aib]QGTFTSDYSIYLDKQAA[Aib]EFVC(40K‑TE PEG)WLLAGGPSSGAPPPSK(Lauroyl)-NH2 [peptide of SEQ ID NO: 173] | 190 | 89 | 11 |  |  |  | 
3 | [Isobutyryl(2-imidazol-4-yl)][dS]QGTFTSDKSKYLDERAAQDFVQWLLDT-NH2 (not fully specified (residue 10)) [Analog No. 44: DMIA1, dSer2, K10acyl, E16, A18, L27, D28 (SEQ ID NO: 32)] |  |  |  | 4 | 103 | 3 | 
4 | H[Aib]QGTFTSDK(Palmitoyl)SKYLD[Aib]RAAQDFVQWLVKGGPSSGAPPPS-NH2 [Analog No. 53: Aib2, K10acyl, Aib16, A18, V27, K28, G29 + CEX (SEQ ID NO: 35)] |  |  |  | 11 | 73 | 5 | 
5 | H[Aib]EGTFTSDKSKYLDERRA[Aib]EFVQWLLDT-NH2 (not fully specified (residue 10)) [Analog No. 64: Aib2, E3, K10acyl, E16, Aib20, E21, L27, D28 (SEQ ID NO: 40)] |  |  |  | 42 | 24 | 6 | 
6 | Y[Aib]EGTFTSDYSIYLDKQAA[Aib]EFVNWLLAGGPSSGAPPPSC(PEG 40 kDa)-NH2 [peptide of SEQ ID NO: 175] | 620 | 100 | 66 |  |  |  | 
7 | Y[Aib]QGTFTSDYSIYLDKQAA[Aib]EFVC(40K‑TE PEG)WLLAGGPSSGAPPPSK(C8)-NH2 [peptide of SEQ ID NO: 172] | 3060 | 487 | 108 |  |  |  | 
8 | H[Aib]QGTFTSDKSKYLDERAAQDFVQWLLDGRG-NH2 (not fully specified (residue 10)) [Analog No. 34: Aib2, K10acyl, E16, A18, L27, D28, GRG29-31 (SEQ ID NO: 29)] |  |  |  | 7 | 64 | 3 | 
9 | H[Aib]EGTFTSDK(Palmitoyl)SKYLDERRA[Aib]DFVQWLLDGGPSSGAPPPS-NH2 [Analog No. 65: Aib2, E3, K10acyl, E16, Aib20, L27, D28, G29 + CEX (SEQ ID NO: 41)] |  |  |  | 221 | 13 | 6 | 
10 | Y[Aib]QGTFTSDK([γGlu-γGlu-Palmitoyl])SIYLDKQAA[Aib]EFVNWLLAGGPSSGAPPPS-NH2 (N-terminus assumed; SMILES CCCCCCCCCCCCCCCC(=O)N[C@@H](CCC(=O)N[C@@H](CCC(=O)NCCCC[C@H](NC(=O)[C@H](CC(=O)O)NC(=O)[C@H](CO)NC(=O)[C@@H](NC(=O)[C@H](Cc1ccccc1)NC(=O)[C@@H](NC(=O)CNC(=O)[C@H](CCC(N)=O)NC(=O)C(C)(C)NC(=O)[C@@H](N)Cc1ccc(O)cc1)[C@@H](C)O)[C@@H](C)O)C(=O)N[C@@H](CO)C(=O)N[C@H](C(=O)N[C@@H](Cc1ccc(O)cc1)C(=O)N[C@@H](CC(C)C)C(=O)N[C@@H](CC(=O)O)C(=O)N[C@@H](CCCCN)C(=O)N[C@@H](CCC(N)=O)C(=O)N[C@@H](C)C(=O)N[C@@H](C)C(=O)NC(C)(C)C(=O)N[C@@H](CCC(=O)O)C(=O)N[C@@H](Cc1ccccc1)C(=O)N[C@H](C(=O)N[C@@H](CC(N)=O)C(=O)N[C@@H](Cc1c[nH]c2ccccc12)C(=O)N[C@@H](CC(C)C)C(=O)N[C@@H](CC(C)C)C(=O)N[C@@H](C)C(=O)NCC(=O)NCC(=O)N1CCC[C@H]1C(=O)N[C@@H](CO)C(=O)N[C@@H](CO)C(=O)NCC(=O)N[C@@H](C)C(=O)N1CCC[C@H]1C(=O)N1CCC[C@H]1C(=O)N1CCC[C@H]1C(=O)N[C@@H](CO)C(N)=O)C(C)C)[C@@H](C)CC)C(=O)O)C(=O)O) [peptide of SEQ ID NO: 81] | 73 | 5 | 8 |  |  |  | 
11 | H[Aib]QGTFTSDKSKYLD[Aib]RAAQDFVQWLMDGGPSSGAPPPS-NH2 (not fully specified (residue 10)) [Analog No. 49: Aib2, K10acyl, Aib16, A10, D28, G29 + CEX (SEQ ID NO: 33)] |  |  |  | 5 | 248 | 4 | 
12 | H[dS]QGTFTSDKSKYLDERAAQDFVQWLLDGGPSSGAPPPS-NH2 (not fully specified (residue 10)) [Analog No. 29: dSer2, K10acyl, E16, A18, L27, D28, G29 + CEX (SEQ ID NO: 27)] |  |  |  | 3 | 85 | 2 | 
13 | Y[Aib]QGTFTSDYSIYLDEQAAKEFVNWLLAGGPSSGAPPPSK-NH2 (not fully specified) [mt-227 (SEQ ID NO: 25)] |  |  |  |  |  |  | EC50 (cAMP reporter) [7]: 4240 pM; EC50 (cAMP reporter) [8]: 1320 pM; EC50 (cAMP reporter) [9]: 80 pM
14 | H[dS]QGTFTSDKSKYLDERRA[Aib]EFVQWLLDT-NH2 (not fully specified (residue 10)) [Analog No. 36: dSer2, K10acyl, E16, Aib20, E21, L27, D28 (SEQ ID NO: 30)] |  |  |  | 8 | 250 | 3.1 | 
15 | Y[Aib]PGTFISDYSIAMDKIHQQDFVC(PEG40kDa)WLLAQKGKKNWLKHNITQ-NH2 (not fully specified) [mt-228 (SEQ ID NO: 26)] |  |  |  |  |  |  | EC50 (cAMP reporter) [7]: 5360 pM; EC50 (cAMP reporter) [8]: 2270 pM; EC50 (cAMP reporter) [9]: 146 pM
16 | H[Aib]QGTFTSDKSKYLD[Aib]RAAQDFVQWLKDGGPSSGAPPPS-NH2 (not fully specified (residue 10)) [Analog No. 54: Aib2, K10acyl, Aib16, A18, K27, D28, G29 + CEX (SEQ ID NO: 36)] |  |  |  | 8 | 171 | 4 | 

Reference: patent US20120238493A1 (INDIANA UNIVERSITY RESEARCH AND TECHNOLOGY, published 2012)
